We go through two molecules from patent US20050260210A1 (FACET BIOTECH, published 2005).

The assay concerns the target T1, mouse α5β1 integrin (mouse, UniProt P11688 45-1053; P09055 21-798).
T1 construct: Named as present on mouse xenograft tumor vasculature
Briefly: not described.

T1 sequence (P11688 45-1053, chain 1 of 2): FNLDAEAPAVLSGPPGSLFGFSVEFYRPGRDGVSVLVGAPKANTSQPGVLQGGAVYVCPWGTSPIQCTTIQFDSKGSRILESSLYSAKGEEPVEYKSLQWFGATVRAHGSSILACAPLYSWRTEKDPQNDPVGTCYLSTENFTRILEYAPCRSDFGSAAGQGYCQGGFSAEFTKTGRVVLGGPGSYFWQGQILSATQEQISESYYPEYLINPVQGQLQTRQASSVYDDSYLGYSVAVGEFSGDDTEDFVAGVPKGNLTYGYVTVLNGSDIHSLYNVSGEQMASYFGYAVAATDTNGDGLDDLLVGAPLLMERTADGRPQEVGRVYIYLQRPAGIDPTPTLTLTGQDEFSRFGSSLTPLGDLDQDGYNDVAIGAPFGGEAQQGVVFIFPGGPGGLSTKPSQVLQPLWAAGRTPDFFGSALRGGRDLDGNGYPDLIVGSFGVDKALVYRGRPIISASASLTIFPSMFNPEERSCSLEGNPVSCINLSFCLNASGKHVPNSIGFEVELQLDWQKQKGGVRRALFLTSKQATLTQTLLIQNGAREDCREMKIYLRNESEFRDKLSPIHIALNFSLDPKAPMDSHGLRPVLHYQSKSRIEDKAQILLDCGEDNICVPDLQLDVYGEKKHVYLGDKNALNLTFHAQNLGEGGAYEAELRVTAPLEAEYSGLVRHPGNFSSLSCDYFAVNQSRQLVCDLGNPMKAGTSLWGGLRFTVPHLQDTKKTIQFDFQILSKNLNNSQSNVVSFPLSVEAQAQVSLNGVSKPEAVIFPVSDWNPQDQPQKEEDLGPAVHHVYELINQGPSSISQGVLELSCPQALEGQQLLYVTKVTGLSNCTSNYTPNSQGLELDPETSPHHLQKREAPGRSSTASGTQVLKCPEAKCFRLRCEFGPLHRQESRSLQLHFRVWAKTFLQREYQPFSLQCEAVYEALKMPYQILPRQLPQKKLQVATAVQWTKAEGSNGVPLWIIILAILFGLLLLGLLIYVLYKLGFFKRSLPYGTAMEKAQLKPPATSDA
T1 sequence (P09055 21-798, chain 2 of 2): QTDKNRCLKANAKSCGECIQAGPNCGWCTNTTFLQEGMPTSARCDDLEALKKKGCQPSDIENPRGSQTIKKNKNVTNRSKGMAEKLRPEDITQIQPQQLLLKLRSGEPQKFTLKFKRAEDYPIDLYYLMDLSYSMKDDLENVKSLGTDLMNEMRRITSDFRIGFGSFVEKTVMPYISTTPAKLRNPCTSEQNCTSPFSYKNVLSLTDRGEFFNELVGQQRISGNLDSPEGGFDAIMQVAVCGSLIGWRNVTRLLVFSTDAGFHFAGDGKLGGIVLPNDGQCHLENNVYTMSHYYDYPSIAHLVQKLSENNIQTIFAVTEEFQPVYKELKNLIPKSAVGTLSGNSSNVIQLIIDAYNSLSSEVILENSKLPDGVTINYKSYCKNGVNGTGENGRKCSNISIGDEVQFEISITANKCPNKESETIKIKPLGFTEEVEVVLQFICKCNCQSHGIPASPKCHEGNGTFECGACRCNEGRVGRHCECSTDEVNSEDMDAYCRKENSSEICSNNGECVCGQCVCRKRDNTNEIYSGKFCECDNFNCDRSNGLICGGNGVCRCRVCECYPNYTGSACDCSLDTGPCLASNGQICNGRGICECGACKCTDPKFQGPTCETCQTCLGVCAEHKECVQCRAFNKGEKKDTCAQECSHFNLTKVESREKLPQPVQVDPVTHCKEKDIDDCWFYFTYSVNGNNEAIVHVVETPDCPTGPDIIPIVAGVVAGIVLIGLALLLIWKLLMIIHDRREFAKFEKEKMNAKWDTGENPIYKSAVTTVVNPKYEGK

B1: IIA1, anti-α5β1 mouse antibody (antibody, mouse IgG1, V domains shown)
VH: QVQLKESGPGLVAPSQSLSITCTISGFSLTDYGVHWVRQPPGKGLEWLVVIWSDGSSTYNSALKSRMTIRKDNSKSQVFLIMNSLQTDDSAMYYCARHGTYYGMTTTGDALDYWGQGTSVTVSS
VL: QIVLTQSPAIMSASLGERVTMTCTASSSVSSNYLHWYQQKPGSAPNLWIYSTSNLASGVPARFSGSGSGTSYSLTISSMEAEDAATYYCHQYLRSPPTFGGGTKLEIK
notes: also called mouse anti-α5β1 antibody
Regarding B1, the binding result was “no binding”.

B2: M200, chimeric anti-α5β1 antibody (antibody, IgG4, V domains shown)
VH: B1 VH
VL: B1 VL
notes: also called volociximab
In the case of B2, the binding result is given as “no binding”.
